First the molecules themselves.
B1: Gli2-ZF (418-604aa; zinc finger domain of Gli2) (other, human, UniProt P10070 418-604, looked up)
chain: KEDLDRDDCKQEAEVVIYETNCHWEDCTKEYDTQEQLVHHINNEHIHGEKKEFVCRWQACTREQKPFKAQYMLVVHMRRHTGEKPHKCTFEGCSKAYSRLENLKTHLRSHTGEKPYVCEHEGCNKAFSNASDRAKHQNRTHSNEKPYICKIPGCTKRYTDPSSLRKHVKTVHGPDAHVTKKQRNDVH
notes: Expressed with an HRV-cleavable N-terminal 6xHis tag, cleaved 'if needed'; also called Gli-ZF
B3: GST-Kif7-CC (460-600aa) (other)
chain: PDSGIESASVEDQAAQGAGGRKEDEGAQQLLTLQNQVARLEEENRDFLAALEDAMEQYKLQSDRLREQQEEMVELRLRLELVRPGWGGPRLLNGLPPGSFVPRPHTAPLGGAHAHVLGMVPPACLPGDEVGSEQRGEQVTN
notes: held on the BLI sensor through the GST tag; also called Kif7 coiled-coil domain; coiled-coil dimerization domain fragment of Kif7; not shown: N-terminal GST tag (HRV protease cleavable, modified pGEX vector)

Experiment [1] has as its target T1, Kif7-DM-GFP (1-543aa) (human, UniProt Q2M1P5 1-543).
T1 sequence: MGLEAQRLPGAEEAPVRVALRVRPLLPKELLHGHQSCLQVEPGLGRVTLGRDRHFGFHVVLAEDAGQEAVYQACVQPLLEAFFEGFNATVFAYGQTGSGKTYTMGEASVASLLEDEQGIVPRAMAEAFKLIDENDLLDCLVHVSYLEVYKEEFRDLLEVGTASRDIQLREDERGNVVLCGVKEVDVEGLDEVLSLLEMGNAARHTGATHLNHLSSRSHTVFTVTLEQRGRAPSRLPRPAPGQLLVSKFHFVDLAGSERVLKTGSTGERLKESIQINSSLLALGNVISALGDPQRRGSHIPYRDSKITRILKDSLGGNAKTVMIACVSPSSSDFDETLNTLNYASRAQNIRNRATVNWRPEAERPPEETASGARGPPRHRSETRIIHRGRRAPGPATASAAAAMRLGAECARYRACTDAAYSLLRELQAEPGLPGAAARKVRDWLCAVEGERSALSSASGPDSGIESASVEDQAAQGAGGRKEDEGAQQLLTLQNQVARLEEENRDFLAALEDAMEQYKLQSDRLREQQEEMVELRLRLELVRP
The experiment is described as follows: cell-based or functional assay.

Experiment [2] concerns the target T1, Kif7-DM-GFP (1-543aa). Put plainly: BLI; HIS-tagged, GFP-tagged kinesin on anti-penta-HIS sensor, Gli2-ZF as analyte, Hill fit. The method, then: (§1) Data represent mean and standard deviation from three independent repeats. The plots of binding response versus Gli2-ZF concentration were fit to a Hill equation to determine equilibrium dissociation constants (Kd).
(§2) BLI experiments were performed in an Octet Red 96 instrument (ForteBio). To quantify Kif7-Gli2 binding, Experiments were performed in an assay buffer containing 40 mM TRIS pH7.3, 40 mM KCl, 40 μM ATP 1 mM MgCl₂, 0.12% tween and 0.5 mM TCEP. In the simplest assay, dimeric GST-Kif7-CC at a concentration of 120 nM is immobilized on an anti-GST biosensor chip. Unbound Kif7 is washed away with buffer, and the chips are then dipped into buffer with a range of Gli2-ZF concentrations from 0-1 μM to allow for association of the two proteins. After 300 seconds, they are then moved back into a well with just buffer to allow dissociation for 400 seconds. The equilibrium response of each sensor from three independent repeats at each Gli2 concentration were normalized and plotted against Gli2 concentration and fitted with a Hill function to obtain a Kₜ. […] The assays were also performed with HIS-tagged Kif7-DM and the Kif7-Kif27 chimeric proteins, requiring the use of an anti-penta-HIS biosensor chip, and referencing sensors to account for non-specific binding of Gli2 to the HIS sensor. A flipped assay, using HIS-tagged Gli2 on the sensor and a range of Kif7 concentrations in buffer, was also conducted.
For orientation: In BLI a coated tip is dipped into the sample, and binding shifts an interference pattern.

A further experiment deals with T2, Kif7M-Kif27CC chimera (human, UniProt Q86VH2 475-570).
T2 construct: range 475-570; not shown: HIS tag (used for BLI); GFP tag
T2 sequence: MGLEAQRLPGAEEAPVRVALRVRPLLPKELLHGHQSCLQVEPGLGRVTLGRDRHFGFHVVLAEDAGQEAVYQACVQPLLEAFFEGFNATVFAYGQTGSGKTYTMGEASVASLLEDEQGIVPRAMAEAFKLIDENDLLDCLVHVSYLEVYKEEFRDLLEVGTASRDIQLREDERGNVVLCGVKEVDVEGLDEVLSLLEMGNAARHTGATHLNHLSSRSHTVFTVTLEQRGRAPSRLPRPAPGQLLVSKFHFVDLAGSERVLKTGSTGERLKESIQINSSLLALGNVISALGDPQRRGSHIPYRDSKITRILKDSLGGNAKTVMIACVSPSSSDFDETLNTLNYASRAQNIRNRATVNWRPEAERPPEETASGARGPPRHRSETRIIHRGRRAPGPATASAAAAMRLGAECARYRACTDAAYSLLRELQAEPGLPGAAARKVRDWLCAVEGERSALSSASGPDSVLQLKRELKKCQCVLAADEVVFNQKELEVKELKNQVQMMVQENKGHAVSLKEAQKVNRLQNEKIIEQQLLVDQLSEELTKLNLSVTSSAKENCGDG
The description is as above. The method, then:
as §1, §2

The target in a further experiment is T3, Kif27M-Kif7CC chimera (human, UniProt Q86VH2 1-475).
T3 construct: range 1-475; not shown: HIS tag (used for BLI); GFP tag
T3 sequence: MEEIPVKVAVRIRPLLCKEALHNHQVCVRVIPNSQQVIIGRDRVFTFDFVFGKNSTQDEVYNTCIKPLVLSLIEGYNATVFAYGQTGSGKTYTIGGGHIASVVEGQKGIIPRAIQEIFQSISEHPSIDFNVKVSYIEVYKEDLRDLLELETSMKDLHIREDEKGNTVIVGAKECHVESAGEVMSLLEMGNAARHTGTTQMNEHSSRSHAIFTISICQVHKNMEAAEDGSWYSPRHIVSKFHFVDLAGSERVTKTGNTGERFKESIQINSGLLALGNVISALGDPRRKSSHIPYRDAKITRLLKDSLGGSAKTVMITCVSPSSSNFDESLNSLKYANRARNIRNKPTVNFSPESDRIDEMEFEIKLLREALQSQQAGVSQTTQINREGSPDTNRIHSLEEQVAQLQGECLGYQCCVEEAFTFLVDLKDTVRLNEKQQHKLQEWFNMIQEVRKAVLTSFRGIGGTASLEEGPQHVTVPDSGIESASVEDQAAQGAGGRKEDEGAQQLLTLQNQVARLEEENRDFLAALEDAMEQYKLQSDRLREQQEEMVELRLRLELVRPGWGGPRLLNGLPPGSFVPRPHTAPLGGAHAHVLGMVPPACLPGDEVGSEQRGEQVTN
Described as above. The method, then: as §1, §2

The target of experiment [3] is B3. Put plainly: BLI, GST-Kif7-CC on the sensor, Gli2-ZF titrated in the presence of 125 nM Gli2 target dsDNA (competitor); not an affinity of the free pair [panel A]. The method, then:
as §2

The target of experiment [4] is B3. The experiment is described as follows: BLI with Gli2-ZF truncation, Hill fit.
Source text: as §1
(§3) Third, we performed a series of site-directed mutagenesis experiments to further confirm the structural model and map the residues of Gli2-ZF and Kif7-CC required for complex formation. We created five Gli2-ZF truncations containing different groups of zinc-fingers (FIG. 3C; FIGS. 10A & 10B). […] This is similar to the Gli-DNA interaction where ZF2 and ZF3 are critical for making contacts with the phosphate backbone of DNA (Pavletich and Pabo, Science, 261, 1701-1707, 1993).
(§4) BLI experiments were performed in an Octet Red 96 instrument (ForteBio). To quantify Kif7-Gli2 binding, Experiments were performed in an assay buffer containing 40 mM TRIS pH7.3, 40 mM KCl, 40 μM ATP 1 mM MgCl₂, 0.12% tween and 0.5 mM TCEP. In the simplest assay, dimeric GST-Kif7-CC at a concentration of 120 nM is immobilized on an anti-GST biosensor chip. Unbound Kif7 is washed away with buffer, and the chips are then dipped into buffer with a range of Gli2-ZF concentrations from 0-1 μM to allow for association of the two proteins. After 300 seconds, they are then moved back into a well with just buffer to allow dissociation for 400 seconds. […]

Experiment [5] concerns the target T4, Gli2-ZF-1-4 (human, UniProt P10070 418-562, limits assumed).
T4 construct: domain: zinc-fingers 1-4
Put plainly: BLI with Gli2-ZF truncation, Hill fit.
Source text: as §1, §3, §4

For experiment [6], the target named is B1. The experiment is described as follows: BLI; GST-Kif7-CC on anti-GST sensor, Gli2-ZF as analyte, Hill fit of equilibrium response. An excerpt: Data represent mean and standard deviation from three independent repeats. The plots of binding response versus Gli2-ZF concentration were fit to a Hill equation to determine equilibrium dissociation constants (Kd). […] See also FIGS. 8A & 8B.
Single molecule fluorescence intensity and photobleaching analysis of the GFP-tagged proteins indicate that the GST-Kif7-CC is an obligate dimer and Gli2-ZF is a monomer (FIGS. 8C & 8D). […] We also verified that Kif7-CC-GFP and Gli2-ZF-GFP bind with similar affinity as the untagged proteins (FIG. 8E). Due to higher stability and yield of the Kif7-CC compared to the Kif7-SCC protein, we used the Kif7-CC for further biochemical analysis.
BLI experiments were performed in an Octet Red 96 instrument (ForteBio). To quantify Kif7-Gli2 binding, Experiments were performed in an assay buffer containing 40 mM TRIS pH7.3, 40 mM KCl, 40 μM ATP 1 mM MgCl₂, 0.12% tween and 0.5 mM TCEP. In the simplest assay, dimeric GST-Kif7-CC at a concentration of 120 nM is immobilized on an anti-GST biosensor chip. Unbound Kif7 is washed away with buffer, and the chips are then dipped into buffer with a range of Gli2-ZF concentrations from 0-1 μM to allow for association of the two proteins. After 300 seconds, they are then moved back into a well with just buffer to allow dissociation for 400 seconds.

The target of experiment [7] is T4, Gli2-ZF-1-4. The experiment is described as follows: BLI with Gli2-ZF truncation, Hill fit (legend of FIG. 10C); legend of FIG. 10C; Hill fit, three repeats. Here is the method: as §1
as §2, with “A flipped assay, using HIS-tagged Gli2 on the sensor and a range of Kif7 concentrations in buffer, was also conducted.” left out

Experiment [8] deals with B1. Put plainly: BLI, Hill fit. The method, then: (§5) Data represent mean and standard deviation from three independent repeats. The plots of binding response versus Gli2-ZF concentration were fit to a Hill equation to determine equilibrium dissociation constants (Kd). […] GFP-tagged versions of proteins show a consistent increase in Kd that is within error range.
as §2, with “A flipped assay, using HIS-tagged Gli2 on the sensor and a range of Kif7 concentrations in buffer, was also conducted.” left out

The next experiment deals with T5, Gli2-ZF-GFP (human, UniProt P10070 418-604).
T5 construct: HRV-cleavable N-terminal 6xHis tag in the vector; not shown: C-terminal GFP tag
T5 sequence (looked up): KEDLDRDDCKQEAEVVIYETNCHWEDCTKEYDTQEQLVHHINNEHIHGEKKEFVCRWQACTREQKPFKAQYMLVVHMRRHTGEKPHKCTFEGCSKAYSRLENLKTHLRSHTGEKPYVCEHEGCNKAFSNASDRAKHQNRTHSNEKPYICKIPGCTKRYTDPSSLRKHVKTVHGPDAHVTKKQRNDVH
The experiment is described as follows: BLI, Hill fit. Here is the method:
as §5
as §2, with “A flipped assay, using HIS-tagged Gli2 on the sensor and a range of Kif7 concentrations in buffer, was also conducted.” left out

Experimental findings from patent US20230374088A1 (GENERAL HOSPITAL, published 2023) are described below.

As for B1, in the experiment with Kif7-DM-GFP (1-543aa) [1], the “Kif7 fluorescence intensity on microtubules (TIRF)” value was greater than 5 fold. The Kd with Kif7-DM-GFP (1-543aa) [2] was 217 nM; with Kif7M-Kif27CC chimera it was 397 nM; in the experiment with Kif27M-Kif7CC chimera it was 213 nM. In the experiment with GST-Kif7-CC (460-600aa) [3], the “EC50 (read off the curve)” value was roughly 200 nM.

B2: Gli2 ZF1-3 (other, human, UniProt P10070 418-530, looked up)
chain: KEDLDRDDCKQEAEVVIYETNCHWEDCTKEYDTQEQLVHHINNEHIHGEKKEFVCRWQACTREQKPFKAQYMLVVHMRRHTGEKPHKCTFEGCSKAYSRLENLKTHLRSHTGE
notes: domain: zinc-fingers 1-3
B2 had a Kd in the experiment with GST-Kif7-CC (460-600aa) [4] of 160 nM.

Turning to B3, the Kd with Gli2-ZF-1-4 [5] came out at 101 nM; in experiment [6] it was 48 nM; with Gli2-ZF-1-4 [7], 103 nM.

B4: GST-Kif7-CC-GFP (other)
chain: PDSGIESASVEDQAAQGAGGRKEDEGAQQLLTLQNQVARLEEENRDFLAALEDAMEQYKLQSDRLREQQEEMVELRLRLELVRPGWGGPRLLNGLPPGSFVPRPHTAPLGGAHAHVLGMVPPACLPGDEVGSEQRGEQVTN
notes: also called GST-tagged Kif7-CC-GFP; not shown: N-terminal GST tag; GFP tag, C-terminal by the name
Take B4: the Kd in experiment [8] came out at 65 nM; with Gli2-ZF-GFP, 57 nM.

Broadly, the Kd is the concentration at which binding is half-saturated. A high value points to weaker binding. One may read the EC50 (read off the curve) as the midpoint of the concentration-response curve.
